The values that follow are results of earlier work, collected in publication PMC6518430.

For orientation: Kd means the concentration at which binding is half-saturated.

The target of one data set is IL-12Rβ1 (Homo sapiens) (UniProt P42701).
For the next data set, the target named is IL-23R (Homo sapiens) (UniProt Q5VWK5).
Sequence of IL-23R (Homo sapiens) (Q5VWK5 24-355): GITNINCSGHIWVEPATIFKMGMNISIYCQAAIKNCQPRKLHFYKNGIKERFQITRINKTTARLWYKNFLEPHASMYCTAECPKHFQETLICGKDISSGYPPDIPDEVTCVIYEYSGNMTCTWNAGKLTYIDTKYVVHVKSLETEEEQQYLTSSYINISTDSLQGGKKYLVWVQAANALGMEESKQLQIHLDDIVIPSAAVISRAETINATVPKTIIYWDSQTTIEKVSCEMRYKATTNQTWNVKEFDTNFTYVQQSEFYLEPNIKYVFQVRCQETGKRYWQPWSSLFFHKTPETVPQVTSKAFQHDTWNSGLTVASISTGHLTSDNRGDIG

Sequence of IL-23 (Q9NPF7 20-189): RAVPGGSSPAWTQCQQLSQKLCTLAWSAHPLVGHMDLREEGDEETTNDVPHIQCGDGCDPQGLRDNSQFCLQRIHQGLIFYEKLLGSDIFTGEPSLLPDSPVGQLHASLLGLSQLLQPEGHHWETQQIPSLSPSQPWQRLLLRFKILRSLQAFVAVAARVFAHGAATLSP
Sequence of IL-23 (P29460 23-328, further chain): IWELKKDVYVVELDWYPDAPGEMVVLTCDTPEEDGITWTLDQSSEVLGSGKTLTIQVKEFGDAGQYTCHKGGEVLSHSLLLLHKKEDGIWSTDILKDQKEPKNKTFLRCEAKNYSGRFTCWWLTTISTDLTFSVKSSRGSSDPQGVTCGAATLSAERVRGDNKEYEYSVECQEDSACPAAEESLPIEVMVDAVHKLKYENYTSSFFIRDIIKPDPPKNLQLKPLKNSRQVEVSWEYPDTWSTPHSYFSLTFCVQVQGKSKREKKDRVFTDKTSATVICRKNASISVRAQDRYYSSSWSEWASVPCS

Take IL-23 (from UniProt Q9NPF7): the Kd with IL-12Rβ1 (Homo sapiens) is 2000 nM; with IL-23R (Homo sapiens), 44 nM.
